B1: GpH7-A5/GpH7-B3 variant D265_01G/GpL16-k0 (antibody, human IgG1, kappa)
heavy 1: not shown
heavy 2: not shown
light: DIVMTQSPLSLPVTPGEPASISCQASESLVHSNRNTYLHWYLQKPGQSPQLLIYKVSNRFSGVPDRFSGSGSGTDFTLKISRVEAEDVGVYYCSQNTHVPPTFGQGTKVEIERTVAAPSVFIFPPSDEQLKSGTASVVCLLNNFYPREAKVQWKVDNALQSGNSQESVTEQDSKDSTYSLSSTLTLSKADYEKHKVYACEVTHQGLSSPVTKSFNRGEC
notes: He Ab: mutation only in the GpH7-B3 H chain; EU numbering; also called He Ab
B2: GpH7-A5/GpH7-B3 variant D265_11K/GpL16-k0 (antibody, human IgG1, kappa)
heavy 1: not shown
heavy 2: not shown
light: B1 light
notes: as for B1
B3: GpH7-A5/GpH7-B3 variant D265_02A/GpL16-k0 (antibody, human IgG1, kappa)
heavy 1: not shown
heavy 2: not shown
light: B1 light
notes: as for B1
B4: GpH7-A5/GpH7-B3 variant D265_13S/GpL16-k0 (antibody, human IgG1, kappa)
heavy 1: not shown
heavy 2: not shown
light: B1 light
notes: as for B1
B5: GpH7-A5/GpH7-B3 variant H268_06M/GpL16-k0 (antibody, human IgG1, kappa)
heavy 1: not shown
heavy 2: not shown
light: B1 light
notes: as for B1
B6: GpH7-A5/GpH7-B3 variant S267_12R/GpL16-k0 (antibody, human IgG1, kappa)
heavy 1: not shown
heavy 2: not shown
light: B1 light
notes: as for B1
B7: GpH7-A5/GpH7-B3 variant D265_20W/GpL16-k0 (antibody, human IgG1, kappa)
heavy 1: not shown
heavy 2: not shown
light: B1 light
notes: as for B1
B8: GpH7-A5/GpH7-B3 variant D265_06M/GpL16-k0 (antibody, human IgG1, kappa)
heavy 1: not shown
heavy 2: not shown
light: B1 light
notes: as for B1
B9: GpH7-A5/GpH7-B3 variant D265_15Y/GpL16-k0 (antibody, human IgG1, kappa)
heavy 1: not shown
heavy 2: not shown
light: B1 light
notes: as for B1
B10: GpH7-A5/GpH7-B3 variant D265_16H/GpL16-k0 (antibody, human IgG1, kappa)
heavy 1: not shown
heavy 2: not shown
light: B1 light
notes: as for B1
B11: GpH7-A5/GpH7-B3 variant S267_11K/GpL16-k0 (antibody, human IgG1, kappa)
heavy 1: not shown
heavy 2: not shown
light: B1 light
notes: as for B1
B12: GpH7-A5/GpH7-B3 variant D265_03V/GpL16-k0 (antibody, human IgG1, kappa)
heavy 1: not shown
heavy 2: not shown
light: B1 light
notes: as for B1
B13: GpH7-A5/GpH7-B3 variant D265_19Q/GpL16-k0 (antibody, human IgG1, kappa)
heavy 1: not shown
heavy 2: not shown
light: B1 light
notes: as for B1
B14: GpH7-A5/GpH7-B3 variant S267_15Y/GpL16-k0 (antibody, human IgG1, kappa)
heavy 1: not shown
heavy 2: not shown
light: B1 light
notes: as for B1
B15: GpH7-A5/GpH7-B3 variant D265_18N/GpL16-k0 (antibody, human IgG1, kappa)
heavy 1: not shown
heavy 2: not shown
light: B1 light
notes: as for B1
B16: GpH7-A5/GpH7-B3 variant S239_20W/GpL16-k0 (antibody, human IgG1, kappa)
heavy 1: not shown
heavy 2: not shown
light: B1 light
notes: as for B1
B17: GpH7-A5/GpH7-B3 variant S267_05P/GpL16-k0 (antibody, human IgG1, kappa)
heavy 1: not shown
heavy 2: not shown
light: B1 light
notes: as for B1
B18: GpH7-A5/GpH7-B3 variant S267_16H/GpL16-k0 (antibody, human IgG1, kappa)
heavy 1: not shown
heavy 2: not shown
light: B1 light
notes: as for B1
B19: GpH7-A5/GpH7-B3 variant D265_04F/GpL16-k0 (antibody, human IgG1, kappa)
heavy 1: not shown
heavy 2: not shown
light: B1 light
notes: as for B1

molecular target: T1, FcγRIa (human, UniProt P12314 16-292); assay: SPR; He/Con_1a divided by He/Con_2b (FcγRIIb as reference)
T1 construct: extracellular domain; also called FcgRI; 1a; not shown: His tag at the C terminus
T1 sequence (P12314 16-292): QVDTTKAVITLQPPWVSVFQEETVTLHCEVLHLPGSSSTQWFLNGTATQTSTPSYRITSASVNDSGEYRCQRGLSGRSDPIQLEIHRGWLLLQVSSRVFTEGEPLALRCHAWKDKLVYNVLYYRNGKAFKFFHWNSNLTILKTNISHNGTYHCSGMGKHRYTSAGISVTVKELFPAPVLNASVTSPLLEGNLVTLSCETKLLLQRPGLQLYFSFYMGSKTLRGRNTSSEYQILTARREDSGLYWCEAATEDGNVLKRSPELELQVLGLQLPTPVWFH

Row | Binder | Ia/IIb He_1a/2b
1 | B1 | 4.95 ratio
2 | B2 | 2.9 ratio
3 | B3 | 4.25 ratio
4 | B4 | 6.07 ratio
5 | B5 | 1.59 ratio
6 | B6 | 8.21 ratio
7 | B7 | 45.6 ratio
8 | B8 | 7.57 ratio
9 | B9 | 73.5 ratio
10 | B10 | 2.23 ratio
11 | B11 | 7.65 ratio
12 | B12 | 17.3 ratio
13 | B13 | 2.66 ratio
14 | B14 | 2.48 ratio
15 | B15 | 4.52 ratio
16 | B16 | 2.06 ratio
17 | B17 | 2.91 ratio
18 | B18 | 1.52 ratio
19 | B19 | 16.8 ratio

molecular target: T1, FcγRIa; assay: SPR (Biacore), captured antibody, soluble FcγR; relative to GpH7-A5/GpH7-B3/GpL16-k0

Row | Binder | He/Con_1a
20 | B1 | 79.9 relative, HeCon Ab = 100
21 | B2 | 43.2 relative, HeCon Ab = 100
22 | B3 | 84.5 relative, HeCon Ab = 100
23 | B4 | 68.7 relative, HeCon Ab = 100
24 | B5 | 105 relative, HeCon Ab = 100
25 | B6 | 92.7 relative, HeCon Ab = 100
26 | B7 | 51.5 relative, HeCon Ab = 100
27 | B8 | 75.7 relative, HeCon Ab = 100
28 | B9 | 44.3 relative, HeCon Ab = 100
29 | B10 | 85.4 relative, HeCon Ab = 100
30 | B11 | 93.3 relative, HeCon Ab = 100
31 | B12 | 55.7 relative, HeCon Ab = 100
32 | B13 | 88.8 relative, HeCon Ab = 100
33 | B14 | 94.2 relative, HeCon Ab = 100
34 | B15 | 27.7 relative, HeCon Ab = 100
35 | B16 | 92.7 relative, HeCon Ab = 100
36 | B17 | 91.8 relative, HeCon Ab = 100
37 | B18 | 100 relative, HeCon Ab = 100
38 | B19 | 53 relative, HeCon Ab = 100

molecular target: T2, FcγRIIb (human, UniProt P31994 43-217); assay: as above
T2 construct: extracellular domain; also called FcgRIIb; 2b; not shown: His tag at the C terminus
T2 sequence (looked up): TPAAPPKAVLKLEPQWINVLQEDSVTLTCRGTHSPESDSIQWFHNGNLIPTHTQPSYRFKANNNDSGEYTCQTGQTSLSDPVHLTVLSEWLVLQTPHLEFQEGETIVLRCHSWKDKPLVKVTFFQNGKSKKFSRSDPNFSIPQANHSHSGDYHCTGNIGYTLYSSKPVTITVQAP

Row | Binder | He/Con_2b
39 | B1 | 16.1 relative, HeCon Ab = 100
40 | B2 | 14.9 relative, HeCon Ab = 100
41 | B3 | 19.9 relative, HeCon Ab = 100
42 | B4 | 11.3 relative, HeCon Ab = 100
43 | B5 | 65.7 relative, HeCon Ab = 100
44 | B6 | 11.3 relative, HeCon Ab = 100
45 | B7 | 1.1 relative, HeCon Ab = 100
46 | B8 | 10 relative, HeCon Ab = 100
47 | B9 | 0.6 relative, HeCon Ab = 100
48 | B10 | 38.3 relative, HeCon Ab = 100
49 | B11 | 12.2 relative, HeCon Ab = 100
50 | B12 | 3.2 relative, HeCon Ab = 100
51 | B13 | 33.4 relative, HeCon Ab = 100
52 | B14 | 37.9 relative, HeCon Ab = 100
53 | B15 | 6.1 relative, HeCon Ab = 100
54 | B16 | 45.1 relative, HeCon Ab = 100
55 | B17 | 31.5 relative, HeCon Ab = 100
56 | B18 | 65.9 relative, HeCon Ab = 100
57 | B19 | 3.2 relative, HeCon Ab = 100
